Data as given in CN115819596A (YOUMAI BIOTECHNOLOGY LIANYUNGANG CO LTD, dated 2023).
Each block holds one binder with its values, some of them ahead of it.

Key:
[1] = biological target: T1, 人CEACAM5蛋白 (human CEACAM5 protein) (human, UniProt P06731 35-685, limits assumed); assay: SPR (Biacore), antibody captured on protein A chip, CEACAM5 protein as analyte
T1 construct: Soluble protein used for ELISA coating and as SPR analyte; The construct is not described
T1 sequence (looked up): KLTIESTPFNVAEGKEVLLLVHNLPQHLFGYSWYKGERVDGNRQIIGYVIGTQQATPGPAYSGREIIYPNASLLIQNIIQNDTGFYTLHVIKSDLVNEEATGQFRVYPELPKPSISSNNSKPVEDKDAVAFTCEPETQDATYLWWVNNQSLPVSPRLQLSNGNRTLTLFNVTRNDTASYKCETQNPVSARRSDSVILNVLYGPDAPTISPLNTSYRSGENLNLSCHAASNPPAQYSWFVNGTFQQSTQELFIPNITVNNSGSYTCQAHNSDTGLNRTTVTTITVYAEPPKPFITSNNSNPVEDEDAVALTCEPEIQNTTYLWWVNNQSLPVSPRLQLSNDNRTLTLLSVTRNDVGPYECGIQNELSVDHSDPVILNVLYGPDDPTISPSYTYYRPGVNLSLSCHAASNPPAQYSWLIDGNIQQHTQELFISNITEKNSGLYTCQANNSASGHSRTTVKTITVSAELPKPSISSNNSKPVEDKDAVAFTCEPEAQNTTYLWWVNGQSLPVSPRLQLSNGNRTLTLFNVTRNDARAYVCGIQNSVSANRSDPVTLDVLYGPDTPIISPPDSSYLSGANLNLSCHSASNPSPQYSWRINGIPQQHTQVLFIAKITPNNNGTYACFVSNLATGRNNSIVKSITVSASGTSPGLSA

[2] = biological target: 食蟹猴CEACAM5蛋白 (cynomolgus CEACAM5 protein) (cynomolgus monkey); assay: ELISA, plate-coated cynomolgus CEACAM5 protein
[3] = biological target: T1, 人CEACAM5蛋白 (human CEACAM5 protein); assay: SPR (Biacore), antibody captured on protein A chip; the text value differs tenfold from Table 8
[4] = biological target: T2, 人CEACAM6 on CHO cells (CHO-CEACAM6) (human, UniProt P40199 35-320); assay: flow cytometry on CHO-CEACAM6 stable cells
T2 construct: whole, on cells
T2 sequence (looked up): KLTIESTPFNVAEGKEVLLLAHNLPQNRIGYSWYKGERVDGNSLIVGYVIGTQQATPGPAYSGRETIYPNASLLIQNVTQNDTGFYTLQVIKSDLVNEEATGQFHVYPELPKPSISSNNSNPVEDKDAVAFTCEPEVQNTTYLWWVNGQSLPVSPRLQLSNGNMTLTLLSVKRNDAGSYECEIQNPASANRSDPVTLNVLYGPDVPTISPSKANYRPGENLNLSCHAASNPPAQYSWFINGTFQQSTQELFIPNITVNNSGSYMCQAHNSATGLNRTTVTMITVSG

[5] = biological target: T1, 人CEACAM5蛋白 (human CEACAM5 protein); assay: ELISA, plate-coated human CEACAM5 protein, goat anti-human IgG HRP
[6] = biological target: T3, 人CEACAM5 on CHO cells (CHO-CEACAM5) (human, UniProt P06731 35-685); assay: flow cytometry on CHO cells overexpressing human CEACAM5
T3 construct: whole, on cells; also called 过表达人CEACAM5的CHO细胞
T3 sequence (looked up): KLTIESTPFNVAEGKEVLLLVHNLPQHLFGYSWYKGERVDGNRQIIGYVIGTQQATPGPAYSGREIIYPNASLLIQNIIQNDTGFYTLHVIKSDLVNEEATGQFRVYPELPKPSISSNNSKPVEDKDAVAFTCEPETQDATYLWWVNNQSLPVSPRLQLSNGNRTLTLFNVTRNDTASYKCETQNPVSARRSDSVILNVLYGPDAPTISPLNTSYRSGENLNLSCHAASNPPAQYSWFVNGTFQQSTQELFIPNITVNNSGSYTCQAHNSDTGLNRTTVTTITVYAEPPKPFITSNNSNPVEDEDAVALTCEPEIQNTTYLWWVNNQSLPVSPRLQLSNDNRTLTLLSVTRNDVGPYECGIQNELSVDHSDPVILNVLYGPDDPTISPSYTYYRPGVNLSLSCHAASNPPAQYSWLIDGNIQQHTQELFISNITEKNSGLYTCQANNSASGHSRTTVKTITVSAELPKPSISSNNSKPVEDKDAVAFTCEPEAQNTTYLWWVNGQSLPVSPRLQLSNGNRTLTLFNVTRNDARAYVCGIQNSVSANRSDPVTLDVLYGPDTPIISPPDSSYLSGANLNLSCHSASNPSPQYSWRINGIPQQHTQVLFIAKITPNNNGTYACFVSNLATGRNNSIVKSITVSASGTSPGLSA

[7] = biological target: 人CD47蛋白 (human CD47 protein) (human, UniProt Q08722 19-139, limits assumed); assay: SPR (Biacore 8K), antibody captured on protein A chip, human CD47 protein as analyte
[8] = biological target: T1, 人CEACAM5蛋白 (human CEACAM5 protein); assay: SPR (Biacore 8K), antibody captured on protein A chip, human CEACAM5 protein as analyte
CD47 on A549 cells = biological target: T4, CD47 on A549 cells (human, UniProt Q08722 19-323); assay: grade of blocking of SIRPα-mouse Fc binding to CD47 on A549 cells, flow cytometry (reference antibody)
T4 construct: whole, on cells; A549 cells also express CEACAM5; also called A549细胞上CD47

Kd [1]: 6.8 nM | koff [1]: 0.000445 s⁻¹ | kon [1]: 65400 M⁻¹ s⁻¹ | EC50 [2]: 0.678 nM | Kd [3]: 0.68 nM | binding result [4]: binds
B1: UM05-L9 (antibody, human IgG1, kappa, V domains shown)
VH: QVQLQQSGPELVRPGVSVKISCKGSGYTFTDYAMHWVKQSHAKSLEWIGVISTYSGHTNYNQKFKGKAIMTVDKSSSTAYMDLARLTSEDSAIYYCVRGSTTAHYYTMDFWGQGTSVTVSS
VL: DIQMTQSPVSLSASVGETVTITCGASENIYGTLNWYQRKQGKSPQLLIYGATNLADGVSSRFSGSGSGRQYSLKISSLHPDDVATYYCQNVLSIPYTFGGGTKLEIKR
notes: also called 人-鼠嵌合抗体UM05-L9; 嵌合抗体UM05-L9

EC50 [5]: 0.399 nM | EC50 [6]: 0.637 µg/mL
B2: UM05-C9 (antibody, V domains shown)
VH: QVQLVQSGAEVKKPGASVKVSCKASGYTFTDYAMHWVRQAPGQGLEWIGVISTYSGHTNYNQKFKGRAIMTRDKSISTAYMELSRLRSDDTAVYYCVRGSTTAHYYTMDFWGQGTTVTVSS
VL: DIQMTQSPSSLSASVGDRVTITCGASENIYGTLNWYQQKPGKSPKLLIYGATNLADAVPSRFSGSGSGTDYTLTISSLQPEDVATYYCQNVLSIPYTFGGGTKVEIK
notes: Humanized anti-human CEACAM5/6 antibody; Only the variable domains are tied to it by name; Detected with goat anti-human IgG; also called 人源化抗体UM05-C9; CEACAM5/6抗体UM05-C9

Kd [7]: 65.7 nM | koff [7]: 0.0451 s⁻¹ | kon [7]: 686000 M⁻¹ s⁻¹ | Kd [8]: 7.43 nM | koff [8]: 0.000173 s⁻¹ | kon [8]: 23300 M⁻¹ s⁻¹
B3: UM11-L34 (bispecific antibody)
chain 1: not shown
chain 2: DIQMTQSPSSLSASVGDRVTITCGASENIYGTLNWYQQKPGKSPKLLIYGATNLADAVPSRFSGSGSGTDYTLTISSLQPEDVATYYCQNVLSIPYTFGGGTKVEIKRTVAAPSVFIFPPSDEQLKSGTASVVCLLNNFYPREAKVQWKVDNALQSGNSQESVTEQDSKDSTYSLSSTLTLSKADYEKHKVYACEVTHQGLSSPVTKSFNRGEC

binding result (CD47 on A549 cells): binds
B4: UM03-C4 (antibody, V domains shown)
VH: QVQLVESGGGVVQPGGSLRLSCAASGFTFSDYGMAWIRQAPGKGPEWIAFITNLASSIYYADTVTGRFTISRDNSKNTLYLQMNSLRAEDTAVYYCARAGDYRSFPYWGQGTLVTVSA
VL: EIVLTQSPATLSLSPGERATLSCSASSSVNYVNWYQQKPGQAPRILIYGISNLASGVPARFSGSGSGTDFTLTISSLEPEDFAVYYCQQRSTFPPYTFGQGTKLEIK
notes: IgG4 subtype of the humanized anti-human CD47 antibody; also called 人源化CD47单克隆抗体; CD47抗体的IgG4亚型
